Data from article PMC10048814.
Residue numbers refer to the chain shown, from its start.

Columns and labels:
Test in all cases: fluorescence polarization
Conditions in all cases: 50 mM HEPES-KOH pH 7.5, 10 mM potassium acetate, 2 mM beta-mercaptoethanol, 0.1 mg/mL BSA, 5 mM MgCl2, 2 nM DNA, temperature not stated
[1] = biological target: T1, DNA polymerase eta core, wild-type (Homo sapiens) (UniProt Q9Y253)
T1 sequence: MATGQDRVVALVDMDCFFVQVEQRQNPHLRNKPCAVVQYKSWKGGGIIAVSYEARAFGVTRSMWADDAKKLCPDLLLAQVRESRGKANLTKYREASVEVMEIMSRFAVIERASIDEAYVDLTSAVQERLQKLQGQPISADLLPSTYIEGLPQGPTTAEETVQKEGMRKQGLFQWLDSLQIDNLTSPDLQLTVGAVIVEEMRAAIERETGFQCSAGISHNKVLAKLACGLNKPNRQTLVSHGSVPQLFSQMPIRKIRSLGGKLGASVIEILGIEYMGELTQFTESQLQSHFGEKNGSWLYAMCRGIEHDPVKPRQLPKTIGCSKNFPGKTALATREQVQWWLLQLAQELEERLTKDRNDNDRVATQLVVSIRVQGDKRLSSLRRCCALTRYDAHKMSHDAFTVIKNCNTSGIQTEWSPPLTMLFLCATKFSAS

[2] = biological target: T2, pol eta core C34W C34W (Homo sapiens) (UniProt Q9Y253)
T2 sequence: T1 sequence with C34W

[3] = biological target: T3, pol eta core G209V G209V (Homo sapiens) (UniProt Q9Y253)
T3 sequence: T1 sequence with G209V

[4] = biological target: T4, pol eta core I147N I147N (Homo sapiens) (UniProt Q9Y253)
T4 sequence: T1 sequence with I147N

[5] = biological target: T5, pol eta core I272T I272T (Homo sapiens) (UniProt Q9Y253)
T5 sequence: T1 sequence with I272T

[6] = biological target: T6, pol eta core R167Q R167Q (Homo sapiens) (UniProt Q9Y253)
T6 sequence: T1 sequence with R167Q

[7] = biological target: T7, pol eta core R334G R334G (Homo sapiens) (UniProt Q9Y253)
T7 sequence: T1 sequence with R334G

[8] = biological target: T8, pol eta core S296F S296F (Homo sapiens) (UniProt Q9Y253)
T8 sequence: T1 sequence with S296F

[9] = biological target: T9, pol eta core T329I T329I (Homo sapiens) (UniProt Q9Y253)
T9 sequence: T1 sequence with T329I

[10] = cis-syn cyclobutane thymine dimer at T7-T8 of the 25-mer template

| Sequence | Kd [1, 10] [nM] | Kd [2, 10] [nM] | Kd [3, 10] [nM] | Kd [4, 10] [nM] | Kd [5, 10] [nM] | Kd [6, 10] [nM] | Kd [7, 10] [nM] | Kd [8, 10] [nM] | Kd [9, 10] [nM] | Kd [1] [nM] | Kd [2] [nM] | Kd [3] [nM] | Kd [4] [nM] | Kd [5] [nM] | Kd [6] [nM] | Kd [7] [nM] | Kd [8] [nM] | Kd [9] [nM] |
| --- | --- | --- | --- | --- | --- | --- | --- | --- | --- | --- | --- | --- | --- | --- | --- | --- | --- | --- |
| CACCATCCACTAC / ATGTAGTTGTAGTGGATGGTGGTAC [13-FAM-mer/25-CTD-mer] | 11 | 5.9 | 11 | 7 | 11 | 18 | 12 | 14 | 5.9 | – | – | – | – | – | – | – | – | – |
| CACCATCCACTAC / ATGTAGTTGTAGTGGATGGTGGTAC [13-FAM-mer/25-TT-mer] | – | – | – | – | – | – | – | – | – | 10 | 6.1 | 8.4 | 6.7 | 8.5 | 9.5 | 11 | 10 | 5 |
